Test [1] deals with T1, human ErbB2 receptor (human, UniProt P04626 23-1255). Description: cell-based or functional assay.
In test [2] the target is T1, human ErbB2 receptor. Description: cell-based or functional assay. This is another data set of the same source.
The target of test [3] is T2, EGF receptor (EGFR, ErbB1) on A431 cells (human, UniProt P00533 25-1210).
T2 construct: whole, on cells; A431 cells also express ErbB2 at very low levels; also called homologous EGF receptor
Description: flow cytometry on A431 cells (EGFR at 2x10^6 receptors per cell). (In general: In flow cytometry, cells or beads pass a laser one at a time.)

Three molecules from US7585952 (BIOTECHNOL S A, dated 2009) can be followed below.

B1: hERB-RNase (Erbicin fused to human pancreatic ribonuclease) (other)
chain: QVQLLQSAAEVKKPGESLKISCKGSGYSFTSYWIGWVRQMPGKGLEWMGIIYPGDSDTRYSPSFQGQVTISADKSISTAYLQWSSLKASDTAVYYCARWRDSPLWGQGTLVTVSSGGGGSGGGGSGGSALQAVVTQEPSFSVSPGGTVTLTCGLSSGSVSTSYYPSWYQQTPGQAPRTLIYSTNTRSSGVPDRFSGSILGNKAALTITGAQADDESDYYCVLYMGSGQYVFGGGTKLTVLGAAASGGPEGGSKESRAKKFQRQHMDSDSSPSSSSTYCNQMMRRRNMTQGRCKPVNTFVHEPLVDVQNVCFQEKVTCKNGQGNCYKSNSSMHITDCRLTNGSRYPNCAYRTSPKERHIIVACEGSPYVPVHFDASVEDST
As for B1, the “IC50 of inhibition of SKBR3 cell proliferation, 72 h” value (shortened to “IC50 of inhibition … 72 h”) with human ErbB2 receptor [1] was about 20 nM.

B2: Erbicin (soluble human anti-ErbB2 scFv) (scFv, not shown: small tags and cut ends)
scFv: QVQLLQSAAEVKKPGESLKISCKGSGYSFTSYWIGWVRQMPGKGLEWMGIIYPGDSDTRYSPSFQGQVTISADKSISTAYLQWSSLKASDTAVYYCARWRDSPLWGQGTLVTVSSGGGGSGGGGSGGSALQAVVTQEPSFSVSPGGTVTLTCGLSSGSVSTSYYPSWYQQTPGQAPRTLIYSTNTRSSGVPDRFSGSILGNKAALTITGAQADDESDYYCVLYMGSGQYVFGGGTKLTVLGHHHHHH
Consider B2, for which the “IC50 of inhibition … 72 h” value in the test with human ErbB2 receptor [1] was 6.4 µg/mL.

B3: Ph-Erbicin (human anti-ErbB2 scFv from type A clone, displayed on phage) (scFv)
scFv: QVQLLQSAAEVKKPGESLKISCKGSGYSFTSYWIGWVRQMPGKGLEWMGIIYPGDSDTRYSPSFQGQVTISADKSISTAYLQWSSLKASDTAVYYCARWRDSPLWGQGTLVTVSSGGGGSGGGGSGGSALQAVVTQEPSFSVSPGGTVTLTCGLSSGSVSTSYYPSWYQQTPGQAPRTLIYSTNTRSSGVPDRFSGSILGNKAALTITGAQADDESDYYCVLYMGSGQYVFGGGTKLTVLG
notes: Tested as whole phage particles carrying the scFv; also called A type phage clone; clone A
Turning to B3, in the test with human ErbB2 receptor [1], the “IC50 of inhibition … 72 h” value was 2.8e+10 cfu/ml; the “IC50 of inhibition of SKBR3 cell proliferation, expressed as scFv concentration in the phage preparation” value came to 0.0013 µg/mL; the “antitumor activity on SKBR3 cells relative to soluble Erbicin” value is about 5000 fold. Besides, in the test with human ErbB2 receptor [2], the “Growth Inhibition (IC50, cfu/ml), BT-474 cells, 96 h” value was found to be 2.5e+11 cfu/ml; the “Growth Inhibition (IC50, cfu/ml), MDA-MB453 cells, 96 h” value was determined as 1.4e+11 cfu/ml; the “Growth Inhibition (IC50, cfu/ml), NIH 3T3 (ErbB2-trasf.) cells, 96 h” value came to 3.5e+11 cfu/ml; the “Growth Inhibition (IC50, cfu/ml), SK-OV-3 cells, 96 h” value was 4e+11 cfu/ml. The “Growth Inhibition (IC50, cfu/ml), SKBR3 cells, 96 h” value with human ErbB2 receptor [2] was 1.2e+10 cfu/ml. Further, the binding result in test [3] is on record as “no binding”.
